One data set deals with plasmid. The data set can be described thus: Amount of encapsulation of plasmid in liposome (Quant-iT PicoGreen dsDNA assay kit), Example 3. In kind it is physicochemical. The protocol: COATSOME/SS-20 (Nippon Oil & Fats), DOPE, cholesterol and DMG-PEG were dissolved into ethanol at a molar ratio of 5:3:1:0.3, to obtain a lipid solution. Two sets of lipid solutions (0.5 ml) put into tubes were prepared, and 0.5 ml of peptide-nucleic-acid solutions (8) (mHP-1) and (16) (mHP-3) of Example 1 were dropped thereto while stirring each lipid solution, thereby forming liposomes. 9 ml of 10 mM-HEPES (pH: 5.3) was added to each of the liposome solutions to make a total amount of 10 ml (each liposome solution will be referred to as “Complex” hereinafter). Further, on an assumption that the liposome is taken into an organism, and liposome solutions (which will be referred to as “HEPES replacement”) in which ethanol, which is the solvent of Complex is substituted by HEPES were produced. The HEPES replacements were produced by condensing each solution of Complex to 1.5 ml with an ultrafiltration film for 300 kDa, adding 8.5 ml of 100 mM-HEPES (pH: 7.4) to each, performing ultrafiltration, thereafter substituting the solvent with 10 mM-HEPES (pH: 7.4), and finally condensing to 0.5 ml. Further, the HEPES replacements were filtered for sterilization with a filter with a pore diameter of 0.45 μm to prepare solutions (which will be referred to as “0.45 μm” hereinafter).
The “peptide-nucleic-acid solution”, “HEPES substituent” and “0.45 micrometer”, each of which contain the protamine, mHP-1 or mHP-3 prepared as above were examined in terms of average particle diameter of liposome, Zeta potential and amount of encapsulation of plasmid. The average particle diameter and Zeta potential were measured using a zetasizer. The amount of encapsulation of plasmid was measured using a Quant-iT PicoGreen (registered trademark) dsDNA assay kit.

Data set [1] relates to human normal mammary gland epithelial cells (HMEC). Description: Transfection of nucleic acid (pAmp-CMV-nLuc) into cells by liposome, luminescence imaging, Example 5. The format is cell-based. As to conditions: 48 hours after addition of the liposome, NanoLuc (FIG. 10). The source says: As nucleic acid to be encapsulated in the liposome, pAmp-CMV-nLuc was used. The pAmp-CMV-nLuc is a reporter vector which contains a NanoLuc gene as the reporter gene. The pAmp-CMV-nLuc includes a CMV promoter as a gene expression promoter, and in its lower stream, a NanoLuc gene, IRES sequence and a replication initiation protein (LT, large T antigen) gene of simian virus 40 (SV40) which are liked in this order, and further, in a lower stream, a replication initiation sequence (SV40 ori) of SV40. Using this nucleic acid, the protamine of Example 3 and the peptides of the mHP-1 and mHP-3, a liposome solution was produced by a method similar to that of Example 3.
The liposome solution prepared as above was added to human normal mammary gland epithelial cells (HMEC) (Kurabo Industries). The HMEC used here was prepared by reviving from an HMEC freeze stock and thereafter culturing in an incubator of a 5%-CO2 atmosphere at 37 degrees Celsius for six to seven days. […]
48 hours after the addition of the liposome, a luminescence substrate (Nano-Glo Luciferase Assay Substrate and Promega) was added to the culture medium to dilute to 1/2000. This culture dish was set to LV200 (a luminescence imaging system of Olympus) and photographed. […]

A further data set relates to plasmid vector (pDNA). Description: Average particle diameter and Zeta potential of peptide-nucleic-acid complexes (zetasizer), Example 1. In kind it is physicochemical. As to conditions: for characteristics of condensing the nucleic acid: judged from particle diameter and its dispersion (Table 2, FIGS. 4 and 5). The protocol: The condensability of the nucleic acid by the peptide of the embodiment and the potential of the peptide-nucleic-acid complex were evaluated.
The peptides were each dissolved in 10 mM of HEPES (pH: 5.3) to prepare several peptide solutions having different peptide concentrations.
For the protamine, three peptide solutions were prepared to have peptide concentrations of: (1) 2.1 mg/ml, (2) 2.4 mg/ml and (3) 2.7 mg/ml. For the mHP-4, four peptide solutions were prepared to have peptide concentrations of: (4) 1.8 mg/ml, (5) 2.1 mg/ml, (6) 2.4 mg/ml and (7) 2.7 mg/ml. For the mHP-1, three peptide solutions were prepared to have peptide concentrations of: (8) 2.1 mg/ml, (9) 2.4 mg/ml and (10) 2.7 mg/ml. For the mHP-2, five peptide solutions were prepared to have peptide concentrations of: (11) 1.2 mg/ml, (12) 1.5 mg/ml, (13) 2.1 mg/ml, (14) 2.4 mg/ml and (15) 2.7 mg/ml. For the mHP-3, three peptide solutions were prepared to have peptide concentrations of: (16) 2.1 mg/ml, (17) 2.4 mg/ml and (18) 2.7 mg/ml. Further, plasmid vector (pDNA) was diluted with purified water to prepare a nucleic acid solution having a pDNA concentration of 3.0 mg/ml.
18 sets of nucleic acid solutions (90 μL) put in tubes were prepared and the peptide solutions (1) to (18) (90 μL) described above were dropped respectively therein and mixed while stirring each, to condense the nucleic acids. Thus, the peptide-nucleic-acid complexes were obtained. Then, the mixtures were each diluted with purified water to 25-fold to produce peptide-nucleic-acid solutions. Further, as references, samples containing only each respective peptide were also prepared without adding the nucleic acid solutions thereto.
The average particle diameter and Zeta potential of each of the peptide-nucleic-acid complexes were investigated using the peptide-nucleic-acid solutions. The average particle diameter and Zeta potential were measured using a zetasizer.

Setting [2] is: pDNA/peptide 1/0.7 (peptide conc. 2.1 mg/mL).
Where [3] appears, read: pDNA/peptide 1/0.8 (peptide conc. 2.4 mg/mL).
Where [4] appears, read: pDNA/peptide 1/0.9 (peptide conc. 2.7 mg/mL).
Setting [5] is: peptide solely, no nucleic acid (Reference).

With “RQRQRGGRRRRRR (Nucleic acid condensing peptide) [mHP-3]”, the Plasmid inclusion amount with plasmid (0.45 μm filtered) was found to be 84.14 µg/mL; in the data set with plasmid (HEPES substitution), 96.94 µg/mL. Also, the “luminescent cells (reporter gene expressed)” value in data set [1] is “luminescence was observed in more cells than those of the sample which used the protamine”. For the same sequence, the “characteristics of condensing the nucleic acid” value in the data set with plasmid vector (pDNA) was “excellent”. In addition, the “Average particle diameter (zAve)” value with plasmid vector (pDNA) (setting [2]) stood at 135.8 nm; in the data set on plasmid vector (pDNA) (setting [3]), 134.9 nm; in the data set with plasmid vector (pDNA) (setting [4]) it was 148.2 nm; with plasmid vector (pDNA) (setting [5]), 322.9 nm. For the same sequence, the Zeta potential with plasmid vector (pDNA) (setting [2]) is −28.1 mV; with plasmid vector (pDNA) (setting [3]), −25.9 mV; with plasmid vector (pDNA) (setting [4]) it was −28.3 mV; in the data set with plasmid vector (pDNA) (setting [5]) it was 17.0 mV.
On to “RQRQRYYRQRQRGGRRRRRR (Nucleic acid condensing peptide) [mHP-1]”, for which the Plasmid inclusion amount in the data set with plasmid (0.45 μm filtered) was found to be 37.30 µg/mL; in the data set on plasmid (HEPES substitution), 42.12 µg/mL. Also, the “luminescent cells (reporter gene expressed)” value in data set [1] is given as “luminescence was observed in most cells”. The “characteristics of condensing the nucleic acid” value with plasmid vector (pDNA) is “excellent”. Also, the “Average particle diameter (zAve)” value in the data set on plasmid vector (pDNA) (setting [2]) was found to be 124.0 nm; in the data set with plasmid vector (pDNA) (setting [3]), 133.4 nm; in the data set on plasmid vector (pDNA) (setting [4]) it was 158.0 nm; in the data set with plasmid vector (pDNA) (setting [5]), 444.0 nm. Also, the Zeta potential with plasmid vector (pDNA) (setting [2]) was −28.2 mV; in the data set with plasmid vector (pDNA) (setting [3]) it was −26.7 mV; with plasmid vector (pDNA) (setting [4]), −25.5 mV; in the data set on plasmid vector (pDNA) (setting [5]), 37.2 mV.

The values are drawn from patent publication US10765761B2, “Nucleic acid condensing peptide, nucleic acid condensing peptide set, nucleic acid delivery carrier, nucleic acid delivery method, cell production method, cell detection method and kit” (KABUSHIKI KAISHA TOSHIBA, priority 2016, dated 2020).
